Earlier results on three molecules are cited in US20260055200A1, “COMBINATION THERAPIES” (Alligator Bioscience AB, priority 2022, published 2026).

Read-outs that look alike come from different tables or passages of the source.

Series [1] has as its system metastatic pancreatic cancer. Conditions: MPACT study; cited from earlier work.
The subject of series [2] is metastatic pancreatic cancer. Conditions: standard first-line treatment; cited from earlier work.
For series [3], the system named is metastatic pancreatic cancer. Conditions: PRODIGE 4, 342 patients; cited from earlier work.
The test system of series [4] is previously untreated pancreatic cancer. Conditions: cited from earlier work.
Series [5] deals with previously untreated metastatic pancreatic cancer. Conditions: cited from earlier work.
The mark [6] stands for this setting: in combination with Gem-NabPac with or without nivolumab.

`Nc1ccn([C@@H]2O[C@H](CO)[C@@H](O)C2(F)F)c(=O)n1` [gemcitabine]: in series [1], the ORR was 7% and the mOS is listed as 6.7 months. Besides, the “median overall survival (mOS)” value in series [2] is listed as “about 6 months”. Besides, in series [3], the mOS was 6.8 months and the “objective response rate (ORR)” value is on record as 9.4%.

On to “Selicrelumab: CD40 agonistic monoclonal antibody, with an IgG2 format”, for which the DLT entry in series [4] (0.2 mg/kg dose level, with gemcitabine) was “One DLT, a cerebrovascular accident”. Moreover, the “proportion of patients with liver enzyme elevations” value in series [4] (all grade 1-2, with gemcitabine) is “approximately ⅔”. Besides, in series [4] (in combination with gemcitabine), the “dose up to which the combination was well tolerated” value was “up to 0.2 mg/kg”. In addition, in series [4] (with gemcitabine), the complete responses result is on record as “no complete responses (CR) were observed”, the “patients with cytokine release syndrome in relation to the infusion” value is given as 20 of the 22 and the response rate is 19%.

B1: APX005M: CD40 agonistic monoclonal antibody, with a mutated IgG1 format for improved binding to FcγR2b (antibody, chains of the INN, looked up, V domains shown)
VH: QVQLVESGGGVVQPGRSLRLSCAASGFSFSSTYVCWVRQAPGKGLEWIACIYTGDGTNYSASWAKGRFTISKDSSKNTVYLQMNSLRAEDTAVYFCARPDITYGFAINFWGPGTLVTVSS
VL: DIQMTQSPSSLSASVGDRVTIKCQASQSISSRLAWYQQKPGKPPKLLIYRASTLASGVPSRFSGSGSGTDFTLTISSLQPEDVATYYCQCTGYGISWPIGGGTKVEIK
With B1, in series [5] (Total (N = 24)), the “Complete Response, patients” value is listed as 0; the “Not Evaluable, patients (%)” value was 1 (4%); the “Partial Response, patients (%)” value was 13 (54%); the “Progressive Disease, patients (%)” value is given as 1 (4%). Besides, the “Stable Disease, patients (%)” value in series [5] (Total (N = 24)) was 9 (38%). Moreover, in series [5] (setting [6]), the “circulating mutant KRAS DNA” value was “marked and rapid decrease”; the “immune profiling of PBMCs, myeloid compartment” value was “rapid activation of DCs in most patients”.
